Data on three molecules can be found in PMC9160021, “Artificial intelligence-assisted cryoEM structure of Bfr2-Lcp5 complex observed in the yeast small subunit processome” (Communications Biology, 2022).

B3: Bfr2 (natural protein, UniProt Q06631 1-534, looked up)
chain: MEKSLADQISDIAIKPVNKDFDIEDEENASLFQHNEKNGESDLSDYGNSNTEETKKAHYLEVEKSKLRAEKGLELNDPKYTGVKGSRQALYEEVSENEDEEEEEEEEEEKEEDALSFRTDSEDEEVEIDEEESDADGGETEEAQQKRHALSKLIQQETKQAINKLSQSVQRDASKGYSILQQTKLFDNIIDLRIKLQKAVIAANKLPLTTESWEEAKMDDSEETKRLLKENEKLFNNLFNRLINFRIKFQLGDHITQNEEVAKHKLSKKRSLKELYQETNSLDSELKEYRTAVLNKWSTKVSSASGNAALSSNKFKAINLPADVQVENQLSDMSRLMKRTKLNRRNITPLYFQKDCANGRLPELISPVVKDSVDDNENSDDGLDIPKNYDPRRKDNNAIDITENPYVFDDEDFYRVLLNDLIDKKISNAHNSESAAITITSTNARSNNKLKKNIDTKASKGRKLNYSVQDPIANYEAPITSGYKWSDDQIDEFFAGLLGQRVNFNENEDEEQHARIENDEELEAVKNDDIQIFG
notes: Bfr2, S. cerevisiae, endogenous in the Δpih1-90S; the whole protein is 1–534; Endogenous protein of the 90S particle; only part of it is modelled in the map

Common to all, as to details: both partners purified
For the assay “Bfr2”, the target named is B3. The experiment in a line: cryo-EM structure; Δpih1-90S purified from yeast by tandem affinity (Pwp2-TAP on IgG Sepharose, Kre33-TwinStrep on Strep-Tactin); 3.99 Å overall, 5.04 Å for the head (5' domain) where Bfr2-Lcp5 lies; Bfr2-Lcp5 model placed with the aid of AlphaFold.
For the next assay, the target named is T1, MBP-Bfr2(266–432) (S. cerevisiae (genomic DNA of BY4741 …, UniProt Q06631 266-432)).
T1 construct: source: E. coli Rosetta(DE3); in lysate (pull-down in cell) and purified (amylose, monoQ, gel filtration)
T1 sequence (looked up): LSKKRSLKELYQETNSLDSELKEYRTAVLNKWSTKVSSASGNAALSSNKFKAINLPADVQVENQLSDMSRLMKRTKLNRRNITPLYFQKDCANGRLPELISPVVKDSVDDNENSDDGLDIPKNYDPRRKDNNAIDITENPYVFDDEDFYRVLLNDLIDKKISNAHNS
The experiment in a line: pull-down; in vitro: purified MBP, MBP-Bfr2(360–432) or MBP-Bfr2(266–432) as bait with purified His-Lcp5(1–160).

The next assay deals with T2, Enp2 (S. cerevisiae (endogenous in yeast …, UniProt P48234 1-707)).
T2 construct: Enp2, S. cerevisiae, endogenous in the Δpih1-90S; its β-propeller is named as the part that Bfr2 touches; Endogenous protein of the 90S particle
T2 sequence (looked up): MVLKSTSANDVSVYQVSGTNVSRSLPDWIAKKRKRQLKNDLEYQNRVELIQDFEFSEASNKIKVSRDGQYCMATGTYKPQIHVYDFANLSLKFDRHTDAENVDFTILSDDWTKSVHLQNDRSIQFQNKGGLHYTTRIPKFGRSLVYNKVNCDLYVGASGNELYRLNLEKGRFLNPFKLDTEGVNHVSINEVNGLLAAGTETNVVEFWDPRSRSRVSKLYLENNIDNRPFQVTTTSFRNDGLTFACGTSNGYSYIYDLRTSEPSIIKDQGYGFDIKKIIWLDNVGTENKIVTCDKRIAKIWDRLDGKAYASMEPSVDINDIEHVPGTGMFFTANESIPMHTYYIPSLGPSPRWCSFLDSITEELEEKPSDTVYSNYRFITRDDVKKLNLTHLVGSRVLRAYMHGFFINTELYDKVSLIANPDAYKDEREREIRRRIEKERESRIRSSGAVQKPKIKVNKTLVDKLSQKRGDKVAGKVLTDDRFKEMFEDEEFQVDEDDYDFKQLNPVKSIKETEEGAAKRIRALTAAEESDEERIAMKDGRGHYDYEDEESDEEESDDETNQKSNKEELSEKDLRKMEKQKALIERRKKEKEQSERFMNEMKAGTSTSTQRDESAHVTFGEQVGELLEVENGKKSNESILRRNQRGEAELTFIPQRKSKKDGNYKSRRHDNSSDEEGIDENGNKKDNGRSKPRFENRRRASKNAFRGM
The experiment in a line: cryo-EM structure; Δpih1-90S purified from yeast by tandem affinity (Pwp2-TAP on IgG Sepharose, Kre33-TwinStrep on Strep-Tactin); 3.99 Å overall, 5.04 Å for the head (5' domain) where Bfr2-Lcp5 lies; Bfr2-Lcp5 model placed with the aid of AlphaFold.

B1: Lcp5 (natural protein, UniProt P40079 1-357, looked up)
chain: MSELNALLKDINGSLTATSESLERLSGIYSNSATDEIPESNQLHEHLFYDAKKPAEKVSLLSLKNGSMLGYINSLLMLIGNRLDDECKDPSAMDARERSIQHRVVLERGVKPLEKKLAYQLDKLTRAYVKMEKEYKDAEKRALEKSTLVNHSGNDDSEDDESSEDEIAYRPNTSGIINTNKKSSAYRVEETAKQENGEENDDNETGVYKPPKITAVLPPQQTHFEDRFDAREHKDRSNKSRMQAMEEYIRESSDQPDWSASIGADIVNHGRGGIKSLRDTEKERRVTSFEEDNFTRLNITNKAEKRKQKQRERNARMNVIGGEDFGIFSSKRKLEDSTSRRGAKKTRSAWDRAQRRL
notes: Lcp5, S. cerevisiae, endogenous in the Δpih1-90S; the newly modelled N-terminal domain holds residues 1–141; Endogenous protein of the 90S particle; only part of it is modelled in the map
For the molecule B1, the binding result with Bfr2 is given as “binds”.

B2: His-Lcp5(1–160) (domain or fragment, S. cerevisiae, UniProt P40079 1-160, looked up)
chain: MSELNALLKDINGSLTATSESLERLSGIYSNSATDEIPESNQLHEHLFYDAKKPAEKVSLLSLKNGSMLGYINSLLMLIGNRLDDECKDPSAMDARERSIQHRVVLERGVKPLEKKLAYQLDKLTRAYVKMEKEYKDAEKRALEKSTLVNHSGNDDSEDD
notes: Lcp5, S. cerevisiae, residues 1–160, polyhistidine tagged; The methods describe only the cloning of the untagged Lcp5(1–160); also called polyhistidine tagged Lcp5 fragment 1–160; source: bacteria expression host, purified
Turning to B2, the binding result in the assay with MBP-Bfr2(266–432) is “binds”.

For the molecule B3, the binding result with Enp2 is listed as “binds”.
